In IntAct's records for PubMed 23782464:

B1: Bcl-2 homologous antagonist/killer (Homo sapiens), Q16611 (parent)
chain: MASGQGPGPPRQECGEPALPSASEEQVAQDTEEVFRSYVFYRHQQEQEAEGVAAPADPEMVTLPLQPSSTMGQVGRQLAIIGDDINRRYDSEFQTMLQHLQPTAENAYEYFTKIATSLFESGINWGRVVALLGFGYRLALHVYQHGLTGFLGQVTRFVVDFMLHHCIARWIAQRGGWVAALNLGNGPILNVLVVLGVVLLGQFVVRRFFKS
partner: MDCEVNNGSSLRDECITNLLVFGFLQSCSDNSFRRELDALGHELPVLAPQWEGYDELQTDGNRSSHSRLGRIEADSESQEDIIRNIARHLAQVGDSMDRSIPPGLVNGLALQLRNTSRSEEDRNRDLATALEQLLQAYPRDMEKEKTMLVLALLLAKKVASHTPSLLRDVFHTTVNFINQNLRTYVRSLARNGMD

Variants of: B1
Settings: with bid_human BID
For MASGQGPGPPRQECGEPALPSASEEQVAQDTEEVFRSYVFYRHQQEQEAEGVAAPADPEMVTLPLQPSSTMGQVGRQLAIIGDDINRRYDSEFQTMLQHLQPTAENAYEEFTKIATSLFESGINWGRVVALLGFGYRLALHVYQHGLTGFLGQVTRFVVDFMLHHCIARWIAQRGGWVAALNLGNGPILNVLVVLGVVLLGQFVVRRFFKS [Y110E], the “effect of a mutation on the interaction” value was “increasing interaction”.
